Assay results taken from patent US8293494B2, “Tri-demethylation-capable protein complex, method of its preparation and its use” (Universitatsklinikum Freiburg, priority 2007, dated 2012).

B1: JMJD2C: Recombinantly expressed and purified His-tagged JMJD2C (aa 12-349), a JMJC domain-containing histone demethylase (protein, UniProt Q9H3R0 12-349, looked up, fragment)
chain: PSCKIMTFRPSMEEFREFNKYLAYMESKGAHRAGLAKVIPPKEWKPRQCYDDIDNLLIPAPIQQMVTGQSGLFTQYNIQKKAMTVKEFRQLANSGKYCTPRYLDYEDLERKYWKNLTFVAPIYGADINGSIYDEGVDEWNIARLNTVLDVVEEECGISIEGVNTPYLYFGMWKTTFAWHTEDMDLYSINYLHFGEPKSWYAIPPEHGKRLERLAQGFFPSSSQGCDAFLRHKMTLISPSVLKKYGIPFDKITQEAGEFMITFPYGYHAGFNHGFNCAESTNFATVRWIDYGKVAKLCTCRKDMVKISMDIFVRKFQPDRYQLWKQGKDIYTIDHTKPT
modifications: His-tag
notes: Recombinantly expressed and purified His-tagged JMJD2C (aa 12-349), a JMJC domain-containing histone demethylase
B2: JMJD2C H190A: enzymatically impaired mutant JMJD2C H190A (aa 12-349) (protein)
chain: PSCKIMTFRPSMEEFREFNKYLAYMESKGAHRAGLAKVIPPKEWKPRQCYDDIDNLLIPAPIQQMVTGQSGLFTQYNIQKKAMTVKEFRQLANSGKYCTPRYLDYEDLERKYWKNLTFVAPIYGADINGSIYDEGVDEWNIARLNTVLDVVEEECGISIEGVNTPYLYFGMWKTTFAWATEDMDLYSINYLHFGEPKSWYAIPPEHGKRLERLAQGFFPSSSQGCDAFLRHKMTLISPSVLKKYGIPFDKITQEAGEFMITFPYGYHAGFNHGFNCAESTNFATVRWIDYGKVAKLCTCRKDMVKISMDIFVRKFQPDRYQLWKQGKDIYTIDHTKPT
modifications: left off: small tags and cut ends

Test system: H3K9 on core histones or nucleosomes from HeLa cells
Assay: In vitro demethylation assay
Assay type: biochemical
Settings: 5 hours at 37° C., Western blot; for demethylation of trimethyl H3K9: core histones and nucleosomes from HeLa cells
Method: FIG. 2 JMJD2C interacts with chromatin and demethylates H3K9. LNCaP cells were incubated with or without the AR agonist R1881 (a, b), and transfected with stealth RNAi (b). ChIP or Re-ChIP was performed with the indicated antibodies. The precipitated chromatin was amplified by PCR using primers flanking the promoter region (ARE I+II) and the enhancer region (ARE III) of the PSA gene, the promoter region (ARE) of the KLK2 gene, or the promoters of the unrelated GAPDH and U6 genes. Western blot analysis (b, lower right panel) verified the specific siRNA-mediated knockdown of JMJD2C. c, Core histories or nucleosomes from HeLa cells were incubated with recombinant JMJD2C (aa 12-349) or mutant JMJD2C H190A (aa 12-349). Western blots were decorated with the indicated antibodies against α-mono-, α-di-, or α-trimethyl H3K9.
FIG. 6: The integrity of core histones and nucleosomes is maintained during the demethylation assay. Core histones or nucleosomes from HeLa cells were incubated with recombinant JMJD2C (aa 12-349) or mutant JMJD2C H190A (aa 12-349). Western blots were decorated with α-H3 antibody.
The demethylation assays were performed as described^4. His-tagged proteins were incubated for 5 hours at 37° C. in demethylation buffer containing 50 mM HEPES-KOH pH 8.0, 2 mM ascorbate, 100 μM Fe(NH4)2(SO4)2, 1 mM α-ketoglutarate with 1 μg of nucleosomes or core histones purified from HeLa cells^22. The reaction mixture was analysed by SDS-PAGE followed by Western blotting using antibodies as indicated.

| Molecule | methylation status of mono- and dimethyl H3K9 | demethylation of trimethyl H3K9 |
| --- | --- | --- |
| B1 | not altered | very efficiently demethylates |
| B2 | – | fails to demethylate |
